Experimental data published in article PMC9780748.

Legend:
Assay in all cases: potentiometry
[1] = target: Glu303 (UniProt position 303, …); details: 298 K; 0.1 M NaClO4; none (HClO4/KOH); free peptide (0.5 mM), no metal
[2] = target: Cterm310 (UniProt position 310, GQLHCT-----); details: 298 K; 0.1 M NaClO4; none (HClO4/KOH); free peptide (0.5 mM), no metal
[3] = target: Tyr189 (UniProt position 189, …); details: 298 K, 0.04 M sodium dodecyl sulfate (no other salt stated), none (HClO4/KOH)
[4] = target: Arg187 (UniProt position 187, …); details: 298 K; 0.04 M sodium dodecyl sulfate (no other salt stated); none (HClO4/KOH); free peptide (0.5 mM) in SDS, no metal
[5] = target: Arg76 (UniProt position 76, …); details: 298 K, 0.1 M NaClO4, none (HClO4/KOH)
[6] = target: Lys79 (UniProt position 79, …); details: 298 K, 0.1 M NaClO4, none (HClO4/KOH)
[7] = free peptide (0.5 mM) in SDS, no metal
[8] = Ni(II) complex, metal:peptide 1:1, 0.5 mM peptide
[9] = Zn(II) complex, metal:peptide 1:1, 0.5 mM peptide
[10] = free peptide (0.5 mM), no metal

## PNCHTHEGGQLHCT [Aspf2 (Asp f 2 zincophore) C-terminal fragment 297-310, Ac-PNCHTHEGGQLHCT (Aspergillus fumigatus)]
[1]
  pKa: 4.24
[2]
  pKa: 3.08

## MHRLYHVP [Aspf2 (Asp f 2 zincophore) fragment 185-192, Ac-MHRLYHVP-NH2 (Aspergillus fumigatus)]
[3]; [7]
  pKa: 9.56
[4]
  pKa: 11.21

## ARHAKAH [Aspf2 (Asp f 2 zincophore) fragment 75-81, Ac-ARHAKAH-NH2 (Aspergillus fumigatus)]
[5]; [8]
  pKa: 11.38
[5]; [9]
  pKa: 11.79
[5]; [10]
  pKa: 11.14
[6]; [8]
  pKa: 9.87
[6]; [9]
  pKa: 9.75
[6]; [10]
  pKa: 9.79

## MHRLYHVPAVGQGWVDHFAD [Aspf2 (Asp f 2 zincophore) fragment 185-204, Ac-MHRLYHVPAVGQGWVDHFAD-NH2 (Aspergillus fumigatus)]
[3]; Zn(II) complex, metal:peptide 1:1, 0.5 mM peptide, in SDS
  pKa: 9.56
[3]; [7]
  pKa: 10.12
[4]
  pKa: 11.24
